We go through eight molecules from patent publication US20200347130A1 (JIANGSU HENGRUI MEDICINE, published 2020).

First the molecules themselves.
T1: CD96 epitope peptide #10 (149-170) (human)
T1 peptide: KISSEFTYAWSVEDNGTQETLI

T2: CD96 epitope peptide #18 (265-284) (human)
T2 peptide: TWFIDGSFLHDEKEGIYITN

T3: CD96 epitope peptide #21 (310-329) (human)
T3 peptide: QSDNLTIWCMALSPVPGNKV

T4: CD96 epitope peptide #9 (137-156) (human)
T4 peptide: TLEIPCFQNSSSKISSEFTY

T5: CD96 epitope peptide #19 (280-299) (human)
T5 peptide: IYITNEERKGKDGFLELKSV

T6: CD96 epitope peptide #4 (62-81) (human)
T6 peptide: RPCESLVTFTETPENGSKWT

T7: Biotinylated CD96 antigen (human, UniProt P40200-2 22-503, limits assumed, biotinylated)
T7 sequence (looked up): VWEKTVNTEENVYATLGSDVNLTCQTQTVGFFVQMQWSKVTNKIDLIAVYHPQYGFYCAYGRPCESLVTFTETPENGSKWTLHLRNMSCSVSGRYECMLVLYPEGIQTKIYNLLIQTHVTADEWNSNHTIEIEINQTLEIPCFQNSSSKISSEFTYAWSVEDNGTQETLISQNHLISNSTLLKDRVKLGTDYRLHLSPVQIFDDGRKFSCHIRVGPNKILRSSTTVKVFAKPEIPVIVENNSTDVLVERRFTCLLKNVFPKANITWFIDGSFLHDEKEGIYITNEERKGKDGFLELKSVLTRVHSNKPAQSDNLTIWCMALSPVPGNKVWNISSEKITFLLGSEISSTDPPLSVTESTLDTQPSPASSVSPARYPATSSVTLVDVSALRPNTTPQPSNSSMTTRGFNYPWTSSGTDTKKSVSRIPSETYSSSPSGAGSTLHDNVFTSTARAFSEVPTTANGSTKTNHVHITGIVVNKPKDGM

B1: ch1719 (antibody, human IgG4 S228P, kappa, V domains shown)
VH: QVQLKESGPGLVAPSQSLSITCTVSGFSLISYGVSWVRQPPGKGLEWLGVIWGDGNTNYHSVLISRLSIRKDDSKSQVFLKLNSLQTDDTATYYCAKNNYYGSRYGYPMDYWGQGTSVTVSS
VL: DIVMTQSHKFMSTSVGDRVSITCKATQDVGTAVAWYQQKPGHSPKLLIYWASTRHTGVPERFTGSGSGTDFTLTIDNVQSEDLADYFCQQYGSSVLTFGAGTKVELRR
notes: also called chimeric antibody corresponding to m1719
B2: ch1721 (antibody, human IgG4 S228P, kappa, V domains shown)
VH: B1 VH with S35N, N56S, V62A, R70S, K81N, N99Y, Y100F, P108A, Y111S, T116I
VL: DIQMTQSPASLSAAVGETVTITCRASENIYSSLAWYQQKQGKSPQLLVYNAKTLIETVASRFSGSGSGTQYSLKINSLQPEDFGSFYCQHHYGTPYTFGGGTKLEIKR
notes: also called chimeric antibody corresponding to m1721
B3: ch1720 (antibody, human IgG4 S228P, kappa, V domains shown)
VH: EFQLQQSGPELVKPGASVKISCKASAYSLTDYNMNWVKQSNGKSLEWIGVINPSYGISSYNQKFKGKATLTVDQSSSTAYMHLNSLTSEDSAVYYCARQLRLPGYFDVWGTGTTVTVSS
VL: DIKMTQSPSSKNASLGERVTITCKASQDINSYLNWFQQKPGKSPKTLIYRASRLVDGVPSRFSGSGSGQDYSLTISSLEYEDMGIYYCLKYDEFPYTFGGGTKLEIKR
notes: also called chimeric antibody corresponding to m1720
B4: h1721-003 (antibody, V domains shown)
VH: EVTLKESGPVLVKPTETLTLTCTVSGFSLSSYGVNWIRQPPGKALEWLGVIWGDGSTNYHSALISRLTISKDTSKSQVVLTLTNMDPVDTATYYCAKNYFYGSRYGYAMDSWGQGTTVTVSS
VL: DIQMTQSPSSLSASVGDRVTITCRASENIYSSLAWYQQKPGKAPKLLIYNAKTLIEGVPSRFSGSGSGTDFTLTISSLQPEDFATYYCQHHYGTPYTFGGGTKVEIK
notes: Only variable regions are tied to this name; also called M721-003
B5: h1718-012 (antibody, V domains shown)
VH: EVQLVQSGAEVKKPGASVKVSCKASGYTITDYNMNWVRQAPGQRLEWIGVINPSYGITDYNQNFKDRVTITVDTSASTAYMELSSLRSEDTAVYYCAIQLRLPGYFDVWGQGTTVTVSS
VL: DIQMTQSPSSLSASVGDRVTITCKASQDINQYLNWFQQKPGKAPKTLIYRANRLVDGVPSRFSGSGSGQDYTLTISSLQPEDFATYYCLKYDEFPYTFGGGTKVEIK
notes: Only variable regions are tied to this name
B6: h1722-010 (antibody, V domains shown)
VH: EVQLVQSGAEVKKPGSSVKVSCKASGGTFSDYWMHWVRQAPGQGLEWIGMLHPNSGTTSFNEKFKIRVTITADKSTSTAYMELSSLRSEDTAVYYCASDYSGPFAYWGQGTLVTVSS
VL: DIQLTQSPSSLSASVGDRVTITCSASSSVNYIHWYQQKPGKAPKRWIFDTSKLASGVPSRFSGSGSGTDYTLTISSLQPEDFATYYCQQWRSNPLTFGQGTKLEIK
notes: Only variable regions are tied to this name; also called M722-010
B7: h1719-014 (antibody, V domains shown)
VH: B4 VH with N35S, I37V, A44G, S56N, A62V, F100Y, A108P, M109L, S111Y
VL: DIQMTQSPSSVSASVGDRVTITCKATQDVGTAVAWYQQKPGKSPKLLIYWASTRHTGVPERFSGSGSGTDFTLTISSLQPEDFATYFCQQYGSSVLTFGGGTKVEIK
notes: Only variable regions are tied to this name; also called M719-014
B8: h1719-010 (antibody, V domains shown)
VH: EVTLKESGPVLVKPTETLTLTCTVSGFSLSSYGVSWVRQPPGKGLEWLGVIWGDGNTNYHSVLISRLTISKDTSKSQVVLTLTNMDPVDTATYYCAKQNYYGSRYGYPIDYWGQGTTVTVSS
VL: B7 VL with S43A, E60S, F87Y
notes: as for B5

Positions count from the first letter of the chain named.

One test concerns the target T1, CD96 epitope peptide #10 (149-170). Put plainly: peptide ELISA ('-' indicates no binding, table note). As for the experimental part: (§1) The epitopes recognized by anti-CD96 antibody were detected by the assay of binding the antibody to different polypeptide fragments of CD96 protein. The fragments of different polypeptides of the CD96 antigen were coated on the microtiter plate. The signal density after the antibody was added was used to judge the binding activity of the antibody and the polypeptide. The specific experimental method is as follows:
(§2) The polypeptides were diluted to a concentration of 20 μg/ml with PBS buffer (Shanghai Yuanpei Biotechnology Co., Ltd. Cat No. B320), pH 7.4, added to a 96-well microtiter plate (Corning, Cat No. CLS3590-100EA) at a volume of 50 μl/well, and coated at 4° C. overnight. After discarding the liquid, 250 μl/well of 5% skim milk (BD skim milk, Cat No. 232100) blocking solution diluted with PBS was added, and the plate was incubated in an incubator at 37° C. for 3 hours. After blocking, the blocking solution was discarded, and the plate was washed 5 times with PBST buffer (pH 7.4 PBS containing 0.05% tween-20). 50 μl/well of different concentrations of the antibodies to be tested (hybridoma purification antibody or humanized antibody) diluted with sample dilution was added, and the plate was incubated in an incubator at 37° C. for 2 hours. […] After washing the plate 5 times with PBST, 50 μl/well of TMB chromogenic substrate (KPL, Cat No. 52-00-03) was added, the plate was incubated at room temperature for 5-15 min, followed by adding 50 μl/well of 1M H₂SO₄ to stop the reaction. The absorption value was read at 450 nm with a microplate reader (Thermo Scientific MuLtiskan MK3), and the epitopes that CD96 antibody can recognize were analyzed.
Regarding B1, the binding result is listed as “no binding”.
Still for that read-out and setting: the result for B2 reads “no binding”.
Still for that read-out and setting: the entry for B3 is “no binding”.

The target in another test is T2, CD96 epitope peptide #18 (265-284). Described as above. As to the method: as §1, §2
B1: the binding result is on record as “no binding”.
As for B2, the binding result was “no binding”.
Regarding B3, the binding result is given as “no binding”.

The target in another test is T3, CD96 epitope peptide #21 (310-329). The description is as above. As for the experimental part:
as §1, §2
On to B1, for which the binding result was “no binding”.
As to B2, the binding result was “no binding”.
Still for that read-out and setting: the entry for B3 is “no binding”.

The next test has as its target T4, CD96 epitope peptide #9 (137-156). Described as above. As to the method:
as §1, §2
For the molecule B1, the binding result is “no binding”.
Same read-out and setting: the entry for B2 is “no binding”; for B3 it is “no binding”.

The target of another test is T5, CD96 epitope peptide #19 (280-299). The description is as above. As for the experimental part:
as §1, §2
With B1, the binding result is “no binding”.
Take B2: the binding result is “no binding”.
Consider B3, for which the binding result is listed as “no binding”.

A further test has as its target T6, CD96 epitope peptide #4 (62-81). Described as above. As to the method:
as §1, §2
With B1, the binding result was “no binding”.
In the case of B2, the binding result is on record as “no binding”.
Same read-out and setting: the entry for B3 is “no binding”.

For a further test, the target named is T7, Biotinylated CD96 antigen. Put plainly: competition ELISA, antibody B premixed with biotinylated CD96; competitor (coated antibody A): ch1720. As to the method: (§3) Competitive assays of different antibodies binding to CD96 protein were used to classify binding epitopes of the antibodies. The specific experimental methods are as follows:
(§4) Antibody A was diluted to a concentration of 2 μg/ml with PBS buffer (Shanghai Yuanpei Biotechnology Co., Ltd. Cat No. B320), pH 7.4, added to a 96-well microtiter plate (Corning, Cat No. CLS3590-100EA) at a volume of 50 μl/well, and coated at 4° C. overnight. After discarding the liquid, 250 μl/well of 5% skim milk (BD skim milk, Cat No. 232100) blocking solution diluted with PBS was added, and the plate was incubated at 37° C. for 3 hours. After blocking, the blocking solution was discarded, and the plate was washed 5 times with PBST buffer (pH 7.4 PBS containing 0.05% tween-20) and stored for later use. Antibody B was diluted to 40 μg/ml and 8 μg/ml with 1% BSA, and Biotinylated CD96 antigen was simultaneously diluted to 4 μg/mL. Subsequently, antibody B and antigen were mixed in a 1:1 volume ratio, pre-incubated at 37° C. for 45 minutes, added into the enzyme plate coated with antibody A, thus incubating the plate in an incubator at 37° C. for 1.5 hours. After incubation, the plate was washed for 5 times with PBST, and 50 μl/well of HRP-labeled streptavidin (Sigma, Cat No. 52438) diluted with sample dilution was added, followed by incubating the plate at 37° C. for 1 hour. After washing the plate 5 times with PBST, 50 μl/well of TMB chromogenic substrate (KPL, Cat No. 52-00-03) was added for color development, followed by adding 50 μl/well of 1M H₂SO₄ to stop the reaction. The absorption value was read at 450 nm with a NOVOStar microplate reader, and the OD value was used to determine whether A and B CD96 antibodies compete with each other. Antibodies that compete with each other fall into the same class of antibodies, otherwise belong to different classes of antibodies (see FIG. 3 and Table 18).
B4: the “competition (percent)” value stood at 92.6%.
For the molecule B3, the “competition (percent)” value came to 100%.
On the same count and under the same terms, the figure for B5 is 103%; for B6 it is -11.5%; for B7 it is 67.7%.

For another test, the target named is T7, Biotinylated CD96 antigen. Put plainly: competition ELISA, antibody B premixed with biotinylated CD96; competitor (coated antibody A): h1721-003. As for the experimental part: as §3, §4
Take B4: the “competition (percent)” value was found to be 100%.
Same read-out and setting: the figure for B3 is 98.7%.
On to B5, for which the “competition (percent)” value amounted to 103%.
As for B6, the “competition (percent)” value is -8.5%.
As for B7, the “competition (percent)” value is 84.6%.

The target of a further test is T7, Biotinylated CD96 antigen. Put plainly: competition ELISA: antibody B pre-incubated with biotinylated CD96 antigen, added to a plate coated with antibody A, HRP-streptavidin, OD450; competitor: coated ch1720. As for the experimental part: as §3, §4
In the case of B4, the “IC50 (read off the curve)” value is ~0.4 nM.
Consider B5, for which the “IC50 (read off the curve)” value was ~0.5 nM.
As to B8, the “IC50 (read off the curve)” value was ~0.5 nM.
